According to US20150359911:
pKd: −log10 of the molar value.

Target: Integrin alpha-v beta-3 (UniProt P06756+P05106)
Assay: filter
Details: BzdU replaces dT in the extended strand, HEPES, NaCl, KCl, MgCl2 buffer, 37 C

Chain of Integrin alpha-v beta-3 (P06756 31-992, chain 1 of 2): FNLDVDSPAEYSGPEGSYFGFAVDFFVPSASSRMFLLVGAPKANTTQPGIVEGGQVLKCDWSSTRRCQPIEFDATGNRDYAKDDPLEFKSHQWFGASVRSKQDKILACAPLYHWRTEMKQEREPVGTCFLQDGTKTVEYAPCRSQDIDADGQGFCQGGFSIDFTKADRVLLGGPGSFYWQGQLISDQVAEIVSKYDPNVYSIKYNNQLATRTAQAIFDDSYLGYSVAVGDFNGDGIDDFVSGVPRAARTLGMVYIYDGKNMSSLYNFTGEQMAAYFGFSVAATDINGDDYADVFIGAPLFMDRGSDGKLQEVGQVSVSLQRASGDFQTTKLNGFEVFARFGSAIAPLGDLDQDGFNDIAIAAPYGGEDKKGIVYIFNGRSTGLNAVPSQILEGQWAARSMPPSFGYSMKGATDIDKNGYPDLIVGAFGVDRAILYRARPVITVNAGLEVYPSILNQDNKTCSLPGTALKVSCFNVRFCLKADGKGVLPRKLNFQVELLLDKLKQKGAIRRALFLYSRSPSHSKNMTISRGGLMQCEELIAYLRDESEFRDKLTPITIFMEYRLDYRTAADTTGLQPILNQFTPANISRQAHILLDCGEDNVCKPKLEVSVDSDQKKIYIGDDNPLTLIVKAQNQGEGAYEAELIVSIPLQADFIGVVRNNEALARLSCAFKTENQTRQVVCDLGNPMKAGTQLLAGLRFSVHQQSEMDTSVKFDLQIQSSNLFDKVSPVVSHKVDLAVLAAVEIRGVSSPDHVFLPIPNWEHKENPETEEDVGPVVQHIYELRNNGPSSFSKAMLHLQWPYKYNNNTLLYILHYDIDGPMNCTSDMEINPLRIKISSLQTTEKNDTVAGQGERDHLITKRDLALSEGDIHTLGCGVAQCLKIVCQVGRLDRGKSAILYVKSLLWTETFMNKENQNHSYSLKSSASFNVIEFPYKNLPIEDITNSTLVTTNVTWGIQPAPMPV
Chain of Integrin alpha-v beta-3 (P05106 27-718, chain 2 of 2): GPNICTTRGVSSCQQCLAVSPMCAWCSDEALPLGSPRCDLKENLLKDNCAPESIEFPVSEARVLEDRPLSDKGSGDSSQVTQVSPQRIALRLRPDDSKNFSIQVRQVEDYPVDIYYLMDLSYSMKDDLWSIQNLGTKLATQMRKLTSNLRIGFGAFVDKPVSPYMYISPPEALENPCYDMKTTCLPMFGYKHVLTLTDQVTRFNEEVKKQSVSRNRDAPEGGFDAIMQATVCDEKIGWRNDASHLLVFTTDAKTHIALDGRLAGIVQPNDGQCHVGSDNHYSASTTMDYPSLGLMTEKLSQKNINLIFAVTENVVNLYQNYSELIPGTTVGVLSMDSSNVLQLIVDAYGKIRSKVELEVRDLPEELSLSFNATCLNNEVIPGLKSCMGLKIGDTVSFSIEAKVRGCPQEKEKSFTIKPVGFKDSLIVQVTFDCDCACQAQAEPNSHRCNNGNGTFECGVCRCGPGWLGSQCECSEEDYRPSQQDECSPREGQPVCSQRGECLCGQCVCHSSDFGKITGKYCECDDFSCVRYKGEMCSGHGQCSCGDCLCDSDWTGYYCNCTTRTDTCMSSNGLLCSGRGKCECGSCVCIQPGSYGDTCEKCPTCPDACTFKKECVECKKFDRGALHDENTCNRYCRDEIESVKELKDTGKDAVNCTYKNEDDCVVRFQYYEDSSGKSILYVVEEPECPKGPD

| Sequence | pKd (n = selected N40 region [n positions 19 = modified dU], Bmax 0.45) | pKd (n = random N40 [n positions 19 = modified dU], Bmax 3.23E-11, essentially no binding) |
| --- | --- | --- |
| TCAGCCGCCAGCCAGTTCTGACCAGAGCACCACAGAG [Round 8 SELEX pool] | 7.36 |  |
| TCAGCCGCCAGCCAGTTCTGACCAGAGCACCACAGAG [Starting benzyl-dU random library] |  | 5.19 |
